According to US20250090676A1 (SUTRO BIOPHARMA, published 2025):

Assays:
[1] = target: T1, human folate receptor alpha on cells (human, UniProt P15328 25-234); assay: cell-based or functional assay
[2] = target: T2, human folate receptor beta on cells (human, UniProt P14207 17-230); assay: cell-based or functional assay
[3] = target: T3, human folate receptor alpha (hFOLR1) on cells (human, UniProt P15328 25-234); assay: cell-based or functional assay
[4] = target: T1, human folate receptor alpha on cells; assay: FACS cell binding (MFI) on 293T-hFOLR1 cells; parental 293T cells as negative control
[5] = target: T1, human folate receptor alpha on cells; assay: FACS cell binding (MFI) on 293T cells stably expressing hFOLR1 (293T-hFOLR1); parental 293T cells as negative control
[6] = target: T2, human folate receptor beta on cells; assay: FACS cell binding (MFI) on 293T cells stably expressing hFOLR2 (293T-hFOLR2); parental 293T cells as negative control
[7] = target: T4, cynomolgus folate receptor alpha on CHO cells (cynomolgus monkey, UniProt P15328 25-234 (human entry)); assay: FACS cell binding on CHO-c-FOLRα cells (row 'Cross-reactivity, Cyno')
T4 construct: Stably expressed on CHO cells; also called CHO-c-FOLRα; CHO-cFOLR1
T4 sequence (P15328 other isoform, or with tags, fused parts or gaps limits assumed): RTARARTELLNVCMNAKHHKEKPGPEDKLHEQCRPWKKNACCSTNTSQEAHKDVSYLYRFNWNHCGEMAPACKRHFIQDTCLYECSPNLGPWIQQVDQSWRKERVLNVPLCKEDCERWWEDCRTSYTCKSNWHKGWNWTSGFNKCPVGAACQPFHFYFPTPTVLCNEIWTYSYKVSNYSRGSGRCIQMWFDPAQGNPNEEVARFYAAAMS
Description: (§1) CHO cells were transfected to stably express human (CHO-hFOLR1), cynomolgus (CHO-cFOLR1), or mouse (CHO-mFOLR1) target molecule FOLR1 on the cell surface. Parental CHO cells were used as a negative control to determine background binding levels. Parental CHO and stably transfected CHO-hFOLR1, CHO-cFOLR1, and CHO-mFOLR1 cells were cultured in Ham's F-12: high glucose DMEM (50:50) (Corning, Cellgro-Mediatech) supplemented with 10% heat-inactivated fetal bovine serum (Corning, Cellgro-Mediatech), 1% Penicillin/Streptomycin (Corning, Cellgro-Mediatech) and 2 mmol/L-glutamax (Life Technology).
(§2) A mixture of fluoresecent-labeled parental CHO cells and unlabeled CHO-hFOLRlcells were prepared as follows. Parental CHO cells were washed twice in PBS and incubated in PBS containing with 1 nM CellTrace™ Oregon Green488® (Life Technologies) at 37° C. for 30 minutes. Labeled parental CHO cells were then washed 2× with Ham's F-12 media and 2× with FACS buffer (PBS with 1% bovine serum albumin). Unlabeled CHO-hFOLR1 cells were similarly washed and prepared. […] Data were analyzed using FlowJo® software (FlowJo, LLC; Ashland, OR) to determine mean fluorescence intensities. Binding constants were calculated using the statistical software, GraphPad Prism (GraphPad Software; La Jolla, CA) using the nonlinear regression equation, one site-specific binding with Hill slope. […]

[8] = target: T3, human folate receptor alpha (hFOLR1) on …; assay: FACS cell binding on CHO-h-FOLRα cells
Description: as §1, §2

[9] = target: T5, human FOLR1-HIS (human, UniProt P15328 25-233); assay: SPR (Biacore)
T5 construct: Analyte of the Biacore assay; also called FolRα-ECD; extracellular domain of FOLR1; not shown: HIS tag
T5 sequence (P15328 25-233 limits assumed): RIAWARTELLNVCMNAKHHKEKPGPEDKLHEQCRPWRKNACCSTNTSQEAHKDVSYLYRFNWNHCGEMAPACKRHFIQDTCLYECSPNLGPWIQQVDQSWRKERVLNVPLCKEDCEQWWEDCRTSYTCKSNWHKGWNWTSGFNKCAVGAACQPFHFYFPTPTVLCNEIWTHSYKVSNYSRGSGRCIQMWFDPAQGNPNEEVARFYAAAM

T1 sequence (P15328 25-234 limits assumed): as the sequence (P15328 other isoform, or with tags, fused parts or gaps limits assumed) above, with T2I, R4W, K37R, R117Q, P146A, Y171H counted along it
T3 sequence (P15328 25-234 limits assumed): as the sequence (P15328 other isoform, or with tags, fused parts or gaps limits assumed) above, with T2I, R4W, K37R, R117Q, P146A, Y171H counted along it
T2 sequence (P14207 17-230): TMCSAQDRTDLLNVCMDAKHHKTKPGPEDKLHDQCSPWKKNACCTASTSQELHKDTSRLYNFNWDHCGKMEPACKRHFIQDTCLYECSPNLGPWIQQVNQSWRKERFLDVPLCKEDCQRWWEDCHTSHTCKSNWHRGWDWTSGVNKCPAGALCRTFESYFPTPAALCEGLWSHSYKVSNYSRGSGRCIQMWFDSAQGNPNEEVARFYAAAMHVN

Row | Binder | Kd [5] [nM] | Kd [7] [nM] | Kd [8] [nM] | Kd [9] [nM] | other results
1 | ADC Molecule 4 (1848-H01, Y180/F404, Conjugate P) (antibody, V domains shown, Non-natural amino acid (para-azidomethyl-L-phenylalanine) at HC-Y180 and HC-F404 (EU, in the constant region, which has no SEQ ID NO), each linked to cleavable ValCit hemiasterlin (Conjugate P); DAR about 3.7-3.8) VH: EVQLVESGGGLVQPGGSLRLSCAASGFNIRTQSIHWVRQAPGKGLEWIGDIFPIDGITDYADSVKGRFTISADTSKNTAYLQMNSLRAEDTAVYYCARGSWSWPSGMDYYLDYWGQGTLVTVSS VL: not shown | – | – | – | – | EC50 of cytotoxic activity on 293T cells expressing FolRα [1]: < 10 nM; EC50 of cytotoxic activity on 293T cells expressing FolRβ [2]: ~100 nM
2 | ADC Molecule 4 (1848-H01, Y180/F404, Conjugate P) (antibody, V domains shown, para-azidomethyl-L-phenylalanine at HC-Y180 and HC-F404 (EU numbering, heavy chain constant region), each linked to the cleavable hemiasterlin linker-drug of Conjugate P; DAR about 3.7-3.8) VH: EVQLVESGGGLVQPGGSLRLSCAASGFNIRTQSIHWVRQAPGKGLEWIGDIFPIDGITDYADSVKGRFTISADTSKNTAYLQMNSLRAEDTAVYYCARGSWSWPSGMDYYLDYWGQGTLVTVSS VL: not shown | – | – | – | – | cell killing EC50 on Igrov1 cells in the presence of 0.5 uM unconjugated 1848-H01 as competitor [3]: > 33 nM; cell killing EC50 on OVCAR3 cells in the presence of 0.5 uM unconjugated 1848-H01 as competitor [3]: > 33 nM
3 | antibody 1848-H01 (antibody, V domains shown, the light chain is that of trastuzumab; It was tested as an IgG (detected with anti-human IgG); also called SRP1848-H01) VH: EVQLVESGGGLVQPGGSLRLSCAASGFNIRTQSIHWVRQAPGKGLEWIGDIFPIDGITDYADSVKGRFTISADTSKNTAYLQMNSLRAEDTAVYYCARGSWSWPSGMDYYLDYWGQGTLVTVSS VL: not shown | 9.9 | – | – | – | EC50 (read off the curve) [4]: ~10 nM
4 | antibody 1848-B10 (antibody, V domains shown, the light chain is that of trastuzumab; It was tested as an IgG; also called SRP1848-B10) VH: EVQLVESGGGLVQPGGSLRLSCAASGFNTTTKSIHWVRQAPGKGLEWVGEIYPRDGITDYADSVKGRFTISADTSKNTAYLQMNSLRAEDTAVYYCARGGWHWRSGYSYYLDYWGQGTLVTVSS VL: not shown | 6.4 | – | – | – | binding result [6]: no binding
5 | 1848-B10, Y180/F404 (antibody, V domains shown, para-azidomethyl-L-phenylalanine (pAMF) at HC-Y180 and HC-F404 (EU numbering; both lie in the heavy chain constant region, not in this VH piece), Lead antibody with non-natural amino acid sites Y180/F404) VH: EVQLVESGGGLVQPGGSLRLSCAASGFNTTTKSIHWVRQAPGKGLEWVGEIYPRDGITDYADSVKGRFTISADTSKNTAYLQMNSLRAEDTAVYYCARGGWHWRSGYSYYLDYWGQGTLVTVSS VL: not shown | – | 3.3 | 4.5 | 1.4 | –
6 | 1848-H01, Y180/F404 (antibody, V domains shown, para-azidomethyl-L-phenylalanine (pAMF) at HC-Y180 and HC-F404 (EU numbering; both lie in the heavy chain constant region, not in this VH piece), Lead antibody with non-natural amino acid sites Y180/F404) VH: EVQLVESGGGLVQPGGSLRLSCAASGFNIRTQSIHWVRQAPGKGLEWIGDIFPIDGITDYADSVKGRFTISADTSKNTAYLQMNSLRAEDTAVYYCARGSWSWPSGMDYYLDYWGQGTLVTVSS VL: not shown | – | 3.8 | 3.7 | 1 | –
